Values quoted from earlier work, collected in PMC8880779 (International Journal of Molecular Sciences, 2022).

What was measured:
mouse model of AD = test system: mouse model of AD; design: method as in PMID 29164613
cell-based AD model = test system: cell-based AD model; design: method as in PMID 23519124

B1: CaM-like skin protein: present at concentrations ranging between 3 and 6 nM in the human cerebrospinal fluid (protein, UniProt Q9NZT1 2-146, looked up)
Calmodulin-like protein 5: AGELTPEEEAQYKKAFSAVDTDGNGTINAQELGAALKATGKNLSEAQLRKLISEVDSDGDGEISFQEFLTAAKKARAGLEDLQVAFRAFDQDGDGHITVDELRRAMAGLGQPLPQEELDAMIREADVDQDGRVNYEEFARMLAQE
For B1, the “protection against spatial learning impairment” value (mouse model of AD) is listed as “affords efficient protection against spatial learning impairment” and the “inhibition of neuronal death” value (cell-based AD model) is listed as “inhibits neuronal death in a cell-based AD model”.
